According to the supplement of paper PMC10567573:

B1: LOC100129726 (parent)
chain: VHTGCHKKLGPEARRPRTRWGKN
B2: SPDEF (parent)
chain: FQELAGKELCAMSEEQFRQRSPLG

Variants of: B1
Assay: protein stability index of a GFP-peptide fusion (GPS, HEK-293T) (PSI 1-6); higher = more stable
Conditions: c terminus: native
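Also: lentivirally expressed fusions sorted by FACS into six bins by GFP to DsRed ratio, PSI derived from sequencing read proportions per bin multiplied by bin number.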

Protein stability index, by site and new letter:
V1: L 1.84; S 1.99; I 2.54; R 2.02; E 2.96; H 2.43; C 2.12; M 1.73
T3: P 1.67; F 1.95; I 2.94; D 3.27; Y 1.01
H2: V 2.99; Y 1.85; M 2.79; P 2.05; D 1.82; G 2.38; L 2.38; Q 2.44; W 1.38; T 1.49; K 1.94; A 2.13; N 2.5; R 4
G4: F 2.72; C 2.51; D 2.33; E 3.67

Variants of: B2
Assay: as above
Conditions: c terminus: a fixed tail appended

Protein stability index of substitutions, site by site:
A11: P 3.56; V 1.94; L 2.23; Q 3.55; R 2.52; I 1.87; D 4.66; N 2.91; E 3.49; C 1.83; S 2.31; G 2.94; Y 2.67
S13: N 2.48; C 2.11; V 3.05; I 2.19; K 2.58; M 2.45; A 3.62; Q 2.62; E 2.61; R 2.73; W 2.08
R20: C 2.4; Y 2.43; K 2.51; S 2.88; D 3.47; Q 2.72; W 2.52; N 3.04; L 2.55; T 2.91
F17: L 3.14; A 3.37; I 3.22; V 3.1; R 2.97; K 3.25; M 2.66; D 3.85; S 3.14; Q 3.34; P 3.28; N 3.02; W 2.67; G 3.58; H 3.14
A5: G 2.88; I 2.47; R 2.17; F 2.5; L 1.82; Q 3.32; T 2.46; W 1.9; S 2.24; N 2.82; H 2.73; D 3.71; Y 2.6
K7: D 4.25; I 1.81; W 1.73; R 2.3; V 2.61; E 3.66; S 2.94; Q 4; G 3; T 3.38
L4: M 2.6; V 3.85; Q 3.91; A 3.35; W 2.4; D 4.38; I 3.15; K 3.59; E 4.48; S 4.01
L23: C 2.63; G 3.31; K 3.21; Y 2.59; E 3.48; P 3.25; T 2.77; F 2.78; A 3.02; M 2.84
M12: H 2.9; P 2.38; R 3.34; L 2.72; E 4.28; N 3.3; S 3.75; W 1.79; Y 2.88; G 3.04; D 3.83; T 3.4
R18: C 2.51; T 2.83; F 2.21; P 2.92; W 2; V 2.8; E 3.31; Y 2.29; L 2.76; A 2.93; D 3.37; N 2.96; M 2.51
E8: K 2.32; P 2.06; N 2.27; Q 2.25; I 1.53; L 2.5; W 2.87; D 2.79
G6: Q 2.68; Y 1.9; A 2.4; E 4.18; W 2.65; L 2.44; P 3.7; I 2.69; F 1.84; K 3.03; V 1.68; T 3.32; N 3.4; D 3.62; C 2.28
S21: H 2.82; G 2.52; W 2.4; L 2.6; P 2.43; M 2.74; D 3.26; V 2.99; K 2.44; Q 2.98; F 3.17; Y 2.96; R 2.95; N 2.6; C 2.51; I 2.43
Q16: P 2.47; D 3.23; Y 2.16; I 2.49; N 2.74; L 2.2; E 3.06; K 2.28; G 2.74; H 2.43; S 2.56; A 3.12
G24: M 2.78; S 2.74; P 2.89; E 2.56; Y 2.12; D 3.14; F 2.05; R 2.42; N 2.72; K 3.44; L 2.67; I 2.1; H 2.44; Q 2.44; V 2.43
C10: T 3.52; Y 2.4; I 3.34; R 3.12; M 2.91; H 3.12; A 3.31; V 2.93; L 2.79; E 3.9; Q 3.46; F 2
Q19: C 2.67; L 2.24; I 2.39; V 2.42; H 2.93; A 2.67; T 3.11; S 2.45; N 2.11; Y 2.3; D 2.87; W 1.59; R 2.4; M 2.33
E14: T 1.89; R 2.52; V 2.07; L 2.3; M 2.03; Y 2.49; N 2.81; H 2.47; C 2.46; Q 2.63
F1: G 4.57; K 4.58; V 4.27; P 4.49; I 3.88; R 4.99; D 4.94; A 4.29; Y 3.02; Q 4.93; H 4.02
P22: W 1.75; H 3.45; R 2.53; T 2.63; G 2.61; N 2.59; Y 2.2; D 2.62; C 2.62; A 2.64; I 2.42; E 3.15; F 2.43; K 2.77; L 2.88
L9: W 2.8; H 3.9; N 4.37; Q 4.25; T 3.69; V 2.71; M 3.41; R 3.24; I 3.19; F 2.56; A 3.41; C 2.63; D 4.79; K 3.61; P 3.83
E15: C 2.19; P 2.41; S 2.21; R 2.5; A 3.05; L 2.32; T 2.38; M 2.19; F 1.98; D 2.74; G 2.3; Q 2.71; Y 2.04; K 2.24; N 2.13
Q2: K 3.61; D 4.74; W 2.14; F 3.35; I 2.17; P 2.86; N 4.11; S 2.55; V 2.73; A 2.07; M 2.65; R 3.32; G 2.44; Y 2.96; E 4.17
E3: K 3.3; M 1.79; Y 2.69; P 2.64; D 2.1; A 3.06; F 1.95; I 2.55; C 2.48; G 2.11; W 1.72; N 3.09; Q 3.45
